Results from the Human Domainome abundance scans (Beltran et al. 2025).
± gives the uncertainty stated by the source.

B1: Segment polarity protein dishevelled homolog DVL-3, residues 2 to 81; numbered along this chain, Q92997 (parent)
chain: GETKIIYHLDGQETPYLVKLPLPAERVTLADFKGVLQRPSYKFFFKSMDDDFGVVKEEISDDNAKLPCFNGRVVSWLVSA

Variants of: B1
Assay: abundance fitness (aPCA) (normalised: wild type 0, dead -1); higher = more abundant; growth selection in yeast, the domain comes from the species named
Conditions: Homo sapiens

Variant	abundance fitness
GETKIIYHLDGQETPYLVKLPLPAERVTLADFKGVLQRPSYKFFFKSMDDDFGVVKEEISDDNAKLPCFNGRVVSRLVSA	-0.72 ± 0.075
GETKIIYHLDGQETPYLVKLPLPAERVTLADFKGVLQRPSYKFFFKSMDDDFGVVKEEISDDNAKLPCFNGRVVSVLVSA	-0.565 ± 0.088
GETKIIYHLDGQETPYLVKLPLPAERVTLADFKGVLQRPSYKFFFKSMDDDFGVVKEEISDDNAKLPCFNGRVVSYLVSA	-0.456 ± 0.2
GETKIIYHLDGQETPYLVKLPLPAERVTLADFKGVLQRPSYKFFFKSMDDDFGVVKEEISDDNAKLPCFNGRVVSQLVSA	-0.943 ± 0.17
GETKIIYHLDGQETPYLVKLPLPAERVTLADFKGVLQRPSYKFFFKSMDDDFGVVKEEISDDNAKLPCFNGRVVSTLVSA	-0.579 ± 0.1
GETKIIYHLDGQETPYLVKLPLPAERVTLADFKGVLQRPSYKFFFKSMDDDFGVVKEEISDDNAKLPCFNGRVVSWYVSA	-0.911 ± 0.14
GETKIIYHLDGQETPYLVKLPLPAERVTLADFKGVLQRPSYKFFFKSMDDDFGVVKEEISDDNAKLPCFNGRVVSWEVSA	-0.915 ± 0.24
GETKIIYHLDGQETPYLVKLPLPAERVTLADFKGVLQRPSYKFFFKSMDDDFGVVKEEISDDNAKLPCFNGRVVSWSVSA	-0.831 ± 0.11
GETKIIYHLDGQETPYLVKLPLPAERVTLADFKGVLQRPSYKFFFKSMDDDFGVVKEEISDDNAKLPCFNGRVVSWDVSA	-0.471 ± 0.1
GETKIIYHLDGQETPYLVKLPLPAERVTLADFKGVLQRPSYKFFFKSMDDDFGVVKEEISDDNAKLPCFNGRVVSWRVSA	-0.903 ± 0.14
GETKIIYHLDGQETPYLVKLPLPAERVTLADFKGVLQRPSYKFFFKSMDDDFGVVKEEISDDNAKLPCFNGRVVSWKVSA	-0.261 ± 0.13
GETKIIYHLDGQETPYLVKLPLPAERVTLADFKGVLQRPSYKFFFKSMDDDFGVVKEEISDDNAKLPCFNGRVVSWHVSA	-0.536 ± 0.18
GETKIIYHLDGQETPYLVKLPLPAERVTLADFKGVLQRPSYKFFFKSMDDDFGVVKEEISDDNAKLPCFNGRVVSWFVSA	-0.855 ± 0.14
GETKIIYHLDGQETPYLVKLPLPAERVTLADFKGVLQRPSYKFFFKSMDDDFGVVKEEISDDNAKLPCFNGRVVSWNVSA	-0.751 ± 0.12
GETKIIYHLDGQETPYLVKLPLPAERVTLADFKGVLQRPSYKFFFKSMDDDFGVVKEEISDDNAKLPCFNGRVVSWCVSA	-0.29 ± 0.081
GETKIIYHLDGQETPYLVKLPLPAERVTLADFKGVLQRPSYKFFFKSMDDDFGVVKEEISDDNAKLPCFNGRVVSWIVSA	-0.358 ± 0.088
GETKIIYHLDGQETPYLVKLPLPAERVTLADFKGVLQRPSYKFFFKSMDDDFGVVKEEISDDNAKLPCFNGRVVSWAVSA	-1.11 ± 0.2
GETKIIYHLDGQETPYLVKLPLPAERVTLADFKGVLQRPSYKFFFKSMDDDFGVVKEEISDDNAKLPCFNGRVVSWTVSA	-0.243 ± 0.099
GETKIIYHLDGQETPYLVKLPLPAERVTLADFKGVLQRPSYKFFFKSMDDDFGVVKEEISDDNAKLPCFNGRVVSWVVSA	-0.064 ± 0.065
GETKIIYHLDGQETPYLVKLPLPAERVTLADFKGVLQRPSYKFFFKSMDDDFGVVKEEISDDNAKLPCFNGRVVSWMVSA	-0.395 ± 0.21
GETKIIYHLDGQETPYLVKLPLPAERVTLADFKGVLQRPSYKFFFKSMDDDFGVVKEEISDDNAKLPCFNGRVVSWGVSA	-0.572 ± 0.11
GETKIIYHLDGQETPYLVKLPLPAERVTLADFKGVLQRPSYKFFFKSMDDDFGVVKEEISDDNAKLPCFNGRVVSWPVSA	-0.929 ± 0.28
GETKIIYHLDGQETPYLVKLPLPAERVTLADFKGVLQRPSYKFFFKSMDDDFGVVKEEISDDNAKLPCFNGRVVSWLVSC	-0.015 ± 0.1

Variant	abundance fitness
GETKIIYHLDGQETPYLVKLPLPAERVTLADFKGVLQRPSYKFFFKSMDDDFGVVKEEISDDNAKLPCFNGRVVSWLVSM	-0.101 ± 0.26
GETKIIYHLDGQETPYLVKLPLPAERVTLADFKGVLQRPSYKFFFKSMDDDFGVVKEEISDDNAKLPCFNGRVVSWLVSQ	-0.029 ± 0.29
GETKIIYHLDGQETPYLVKLPLPAERVTLADFKGVLQRPSYKFFFKSMDDDFGVVKEEISDDNAKLPCFNGRVVSWLVSH	-0.089 ± 0.15
GETKIIYHLDGQETPYLVKLPLPAERVTLADFKGVLQRPSYKFFFKSMDDDFGVVKEEISDDNAKLPCFNGRVVSWLVSG	0.014 ± 0.091
GETKIIYHLDGQETPYLVKLPLPAERVTLADFKGVLQRPSYKFFFKSMDDDFGVVKEEISDDNAKLPCFNGRVVSWLVSK	0.212 ± 0.21
GETKIIYHLDGQETPYLVKLPLPAERVTLADFKGVLQRPSYKFFFKSMDDDFGVVKEEISDDNAKLPCFNGRVVSWLVSF	-0.098 ± 0.14
GETKIIYHLDGQETPYLVKLPLPAERVTLADFKGVLQRPSYKFFFKSMDDDFGVVKEEISDDNAKLPCFNGRVVSWLVSL	-0.239 ± 0.13
GETKIIYHLDGQETPYLVKLPLPAERVTLADFKGVLQRPSYKFFFKSMDDDFGVVKEEISDDNAKLPCFNGRVVSWLVSI	-0.004 ± 0.082
GETKIIYHLDGQETPYLVKLPLPAERVTLADFKGVLQRPSYKFFFKSMDDDFGVVKEEISDDNAKLPCFNGRVVSWLVSE	0.191 ± 0.33
GETKIIYHLDGQETPYLVKLPLPAERVTLADFKGVLQRPSYKFFFKSMDDDFGVVKEEISDDNAKLPCFNGRVVSWLVSD	0.267 ± 0.086
GETKIIYHLDGQETPYLVKLPLPAERVTLADFKGVLQRPSYKFFFKSMDDDFGVVKEEISDDNAKLPCFNGRVVSWLVSN	0.11 ± 0.095
GETKIIYHLDGQETPYLVKLPLPAERVTLADFKGVLQRPSYKFFFKSMDDDFGVVKEEISDDNAKLPCFNGRVVSWLMSA	-0.19 ± 0.16
GETKIIYHLDGQETPYLVKLPLPAERVTLADFKGVLQRPSYKFFFKSMDDDFGVVKEEISDDNAKLPCFNGRVVSWLFSA	-0.162 ± 0.079
GETKIIYHLDGQETPYLVKLPLPAERVTLADFKGVLQRPSYKFFFKSMDDDFGVVKEEISDDNAKLPCFNGRVVSWLLSA	-0.398 ± 0.093
GETKIIYHLDGQETPYLVKLPLPAERVTLADFKGVLQRPSYKFFFKSMDDDFGVVKEEISDDNAKLPCFNGRVVSWLASA	-0.836 ± 0.25
GETKIIYHLDGQETPYLVKLPLPAERVTLADFKGVLQRPSYKFFFKSMDDDFGVVKEEISDDNAKLPCFNGRVVSWLSSA	-0.587 ± 0.091
GETKIIYHLDGQETPYLVKLPLPAERVTLADFKGVLQRPSYKFFFKSMDDDFGVVKEEISDDNAKLPCFNGRVVSWLYSA	0.102 ± 0.069
GETKIIYHLDGQETPYLVKLPLPAERVTLADFKGVLQRPSYKFFFKSMDDDFGVVKEEISDDNAKLPCFNGRVVSWLQSA	-0.486 ± 0.21
GETKIIYHLDGQETPYLVKLPLPAERVTLADFKGVLQRPSYKFFFKSMDDDFGVVKEEISDDNAKLPCFNGRVVSWLISA	-0.139 ± 0.067
GETKIIYHLDGQETPYLVKLPLPAERVTLADFKGVLQRPSYKFFFKSMDDDFGVVKEEISDDNAKLPCFNGRVVSWLRSA	-0.322 ± 0.1
GETKIIYHLDGQETPYLVKLPLPAERVTLADFKGVLQRPSYKFFFKSMDDDFGVVKEEISDDNAKLPCFNGRVVSWLTSA	-0.127 ± 0.084
GETKIIYHLDGQETPYLVKLPLPAERVTLADFKGVLQRPSYKFFFKSMDDDFGVVKEEISDDNAKLPCFNGRVVSWLCSA	-0.131 ± 0.088
GETKIIYHLDGQETPYLVKLPLPAERVTLADFKGVLQRPSYKFFFKSMDDDFGVVKEEISDDNAKLPCFNGRVVSWLWSA	-0.228 ± 0.12

Variant	abundance fitness
GETKIIYHLDGQETPYLVKLPLPAERVTLADFKGVLQRPSYKFFFKSMDDDFGVVKEEISDDNAKLPCFNGRVVSWLKSA	-0.105 ± 0.12
GETKIIYHLDGQETPYLVKLPLPAERVTLADFKGVLQRPSYKFFFKSMDDDFGVVKEEISDDNAKLPCFNGRVVSWLESA	-0.008 ± 0.099
GETKIIYHLDGQETPYLVKLPLPAERVTLADFKGVLQRPSYKFFFKSMDDDFGVVKEEISDDNAKLPCFNGRVVSWLNSA	-0.585 ± 0.1
GETKIIYHLDGQETPYLVKLPLPAERVTLADFKGVLQRPSYKFFFKSMDDDFGVVKEEISDDNAKLPCFNGRVVSWLGSA	-0.558 ± 0.1
GETKIIYHLDGQETPYLVKLPLPAERVTLADFKGVLQRPSYKFFFKSMDDDFGVVKEEISDDNAKLPCFNGRVVSWLDSA	-0.708 ± 0.13
GETKIIYHLDGQETPYLVKLPLPAERVTLADFKGVLQRPSYKFFFKSMDDDFGVVKEEISDDNAKLPCFNGRVVSWLVMA	-0.556 ± 0.1
GETKIIYHLDGQETPYLVKLPLPAERVTLADFKGVLQRPSYKFFFKSMDDDFGVVKEEISDDNAKLPCFNGRVVSWLVVA	-0.682 ± 0.087
GETKIIYHLDGQETPYLVKLPLPAERVTLADFKGVLQRPSYKFFFKSMDDDFGVVKEEISDDNAKLPCFNGRVVSWLVPA	0.16 ± 0.069
GETKIIYHLDGQETPYLVKLPLPAERVTLADFKGVLQRPSYKFFFKSMDDDFGVVKEEISDDNAKLPCFNGRVVSWLVRA	-0.31 ± 0.055
GETKIIYHLDGQETPYLVKLPLPAERVTLADFKGVLQRPSYKFFFKSMDDDFGVVKEEISDDNAKLPCFNGRVVSWLVKA	-0.204 ± 0.076
GETKIIYHLDGQETPYLVKLPLPAERVTLADFKGVLQRPSYKFFFKSMDDDFGVVKEEISDDNAKLPCFNGRVVSWLVLA	-0.67 ± 0.092
GETKIIYHLDGQETPYLVKLPLPAERVTLADFKGVLQRPSYKFFFKSMDDDFGVVKEEISDDNAKLPCFNGRVVSWLVAA	-0.206 ± 0.062
GETKIIYHLDGQETPYLVKLPLPAERVTLADFKGVLQRPSYKFFFKSMDDDFGVVKEEISDDNAKLPCFNGRVVSWLVIA	-0.652 ± 0.27
GETKIIYHLDGQETPYLVKLPLPAERVTLADFKGVLQRPSYKFFFKSMDDDFGVVKEEISDDNAKLPCFNGRVVSWLVEA	0.002 ± 0.056
GETKIIYHLDGQETPYLVKLPLPAERVTLADFKGVLQRPSYKFFFKSMDDDFGVVKEEISDDNAKLPCFNGRVVSWLVTA	-0.179 ± 0.071
GETKIIYHLDGQETPYLVKLPLPAERVTLADFKGVLQRPSYKFFFKSMDDDFGVVKEEISDDNAKLPCFNGRVVSWLVDA	0.079 ± 0.065
GETKIIYHLDGQETPYLVKLPLPAERVTLADFKGVLQRPSYKFFFKSMDDDFGVVKEEISDDNAKLPCFNGRVVSWLVHA	-0.466 ± 0.16
GETKIIYHLDGQETPYLVKLPLPAERVTLADFKGVLQRPSYKFFFKSMDDDFGVVKEEISDDNAKLPCFNGRVVSWLVQA	-0.248 ± 0.098
GETKIIYHLDGQETPYLVKLPLPAERVTLADFKGVLQRPSYKFFFKSMDDDFGVVKEEISDDNAKLPCFNGRVVSWLVCA	-0.228 ± 0.083
GETKIIYHLDGQETPYLVKLPLPAERVTLADFKGVLQRPSYKFFFKSMDDDFGVVKEEISDDNAKLPCFNGRVVSWLVGA	-0.287 ± 0.054
GETKIIYHLDGQETPYLVKLPLPAERVTLADFKGVLQRPSYKFFFKSMDDDFGVVKEEISDDNAKLPCFNGRVVSWLVWA	-0.71 ± 0.11
GETKIIYHLDGQETPYLVKLPLPAERVTLADFKGVLQRPSYKFFFKSMDDDFGVVKEEISDDNAKLPCFNGRVVSWLVYA	-0.864 ± 0.18
GETKIIYHLDGQETPYLVKLPLPAERVTLADFKGVLQRPSYKFFFKSMDDDFGVVKEEISDDNAKLPCFNGRVVSWLVFA	-0.504 ± 0.16
